Experimental data: the nanobody polyreactivity screen of Harvey et al. (2022)

Assay: yeast display, Sf9 membrane polyspecificity reagent, FACS + sequencing; frameworks hold sequencing errors
Procedure, shortened: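 After 36–48 hours of galactose induction, yeast (Saccharomyces cerevisiae BJ5465) displaying a synthetic nanobody library were stained at 4 °C for 1 hour with 10% biotinylated, detergent-solubilized Sf9 membrane reagent. Streptavidin microbeads enriched the stained cells before FACS sorting into low and high (top ~1%) gates on anti-HA and streptavidin fluorescence. Each clone's polyreactivity label reflects its gate of origin.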

| Sequence | polyreactivity (PSR sort gate) |
| --- | --- |
| QVQLVESGGGLVQAGGSLRLSCAASGSTFIRYAMGWYRQAPGKERELVAAISSGGGNTYYADSVKGRFTISRDNAKNTVYLQMDSLKPEDTAVYYCAARYLAYGPTGYLYGYNYWGQGTQVTVSS | high polyreactivity |
| QVHLVESGGGLVQAGGSLRLSCPASGRIFDWYAMGCYRQAPGKEREFVAVIDSSGGTYYADSVKGRFTISRDNAKNTVYLQMNSLKPEDTAVYYCAAEYGWWSFPEYDYWGQGTQVTVSS | low polyreactivity |
| QVQLVESGGGLVQAGGSLRLSCAASGLIFGYYAMGCYRQAPGKERELVAAISSSGSTYYADSVKGRFTISCDNEKNTVYLQMNSLKPEDTAVYYCNVDISSYGGDYWGQGTQVTVSS | low polyreactivity |
| QVQLVESGGGLVQAGGSLRLSSAASGFIIVFYAMGWYRQAPGKERELVAAITWSGGGTYYADSVKGRCTISRDNAKNTVYLQMNSLKPEDTAVYYCNAEEPQYYYVLDKLYDFWGQGTQVTVSS | low polyreactivity |
| QVQLEESGGGLVQAGGSLRLSCAASGSIIYENTMGWYRQAPGKERELVAAISASGGSTEYADSVKGRFTISRDNEKNTVYLQMKSLKPEDTGVYYCAADACAFYFGGDYWGLGTQVTVSS | low polyreactivity |
| QVQHVESRGGLVQAGGSLRLICAASGFILYYYAMGWYRQAPGKVREMVASISRRGGSTYYADSVKGRFTISRDNAKNTVYLQMNSLKPEDTAVYYCAATETTSRRFGYDYWGQGTQVTVSS | high polyreactivity |
| QVQREESGGGLFQAGGTLRLSCAASGFTFVWYAMGWNRQATGKERELVAAITRSGGSTYYADSVKGRFTISRDNAKNTVYLQMNSLKPEDTAVYYCNVSYGTFPGRALFANNFYYWGQGTQVTVSS | low polyreactivity |
| QVQLVESGGGLVQAGGSLRLSCAASGINFDDYVMGWYRQAPGKERELFAAISSSGGSTYYADSVKGRFTISRDNAKNTVYLQMNSLKPEDTAVYYCAADYGSYGVVRAVSIEYEYWGQGTKVTVSS | low polyreactivity |
| QVQLVESGGGLVQAGGSLRLSCAASGSTIDYYAMGWYRQAPGKERELVAGIDSAGSTNYADSVKGRFTISRDNAKNTFYLQMNSLKTGRYRGLYCNVGKTITTYAFTTFDYWGQGTHVTVSS | low polyreactivity |
| QVQLVESGGGLVQAGGSLRLSCGASGSIFPHYAMGWYRQAPGKEREFVSTISGSTGRTYYADSVKGRFTISRDNAKNTVYLQMNSLKPEDTAVYYCATSVGYYLPPIKYDYWGQGTQVTVSS | low polyreactivity |
| QVQLVESGGGLVQARGSLRLSCAASGFIFGYYAKGWYRQAPGKERELVAAISPSGGRTYYADSVKGRFTISRDNAKNTVYLQMNILKPEDTAVYYCAAEYAYSLDPVEDYWGQGTLVTVSS | high polyreactivity |
| QVQRVESGGGLVQAGGSLLLSCAASGRIFVTYAKGWYRQAPGKERDLVASITGGGSRYYADSVKGRVTISRDKAKTTVYVQMTRLKPEDPAVNYCAAKSRSWYFGYGYWGQGTQVTVSS | high polyreactivity |
| QVQLVESGGGLVQAGGSLRLSCAASGRIFNYYAMGWSRQAPGKERELVAAIRTGGSTYYADSVKGRFTISRDNAKNTVYLQMNSLKPEDTAVYYCARLVYYSSPYGYWGQGTQVTVSS | high polyreactivity |
| QVQLVESGGVLVQAGGSLRLSCAASGRIFGDNAMGWYRHAPGKERELDADIDSGGRTNYADSVKVRFTISLDNAKNTVYLQMNSLKPEDTAVYYCGRDDIAYLVEYDYWGQGTQVTVSS | low polyreactivity |
| QFQLVESGGGLVQAGGSLRLSCAASGRIFNGNAMGLYRQAPGKERELVAASTSDGSTYADSVKGRFTISRDNAKNTVYLQMNSLKPEDTAVYYCNRDGYTNSRGYEFYYWGQGTQVTVSS | low polyreactivity |
| QVQLVESGGGLVQAGGSLRLSCAASGRIFRHNTMGWYRQAPGKERELVAGITASGGDTYYADSVKGRFTISRDNAKNTVYLDMNSLKPEDTAVYYCATSQYGYRSWPGLYYWGQGTQVTVSS | low polyreactivity |
| QVQLVESGGGLVQAGGSLRLTCAASGRIFAYYAMGWSRQAPGKERELVAAISSGGTTNYADSVKGRFTISRDNAKNTVYLQLTSLKPEDTAVYYCNADGWRRSRQYYYWGQGTQVTVSS | low polyreactivity |
| HVQLVESGGGLVQAGGSLRLSCPASGRTFADNAMGWYRQAPGKERELVASISSGTSTNYADSVKGRFTISRDNAQNTVYVQMNSLKPEDTAVYYCNADGPIWYTAVLGVGRYYGWTDYWGQGTQVTVSS | low polyreactivity |
| QVQLVESGGGLVQAGGSLRLSCAASGFTFALYAMGWYRQAPGKERELVASISWSGGSTYYADSVKGRFTISRDNAKNTVYLQMNSLKPEDTAVYYCAACGRYYGGAYTRYYYWGQGTQVTVSS | high polyreactivity |
| QVQLVESGGGLVQAGGSLRLSCAASGRIFARYAMGWYRQAPGKERELVAAISRGGGSTYYADSVKGRFTISRDNAKNTVYLQMNSLKPEDTAVYYCNRLSKQKQEFDYWGQGTQVTVSS | high polyreactivity |
| QVQLGESGGGLVQAGCSLRLSCAASGSIFIAYDMGWYRQAPGKERELVAAISIIDGSTYYADSVKRRFTISRDNAKNTVYLQMNSLKPEDTAVYYCSTRVFYLYDYWGQGTQVTVSS | low polyreactivity |
| QVQLVESGRGLVQAGGSLRLSCAASGSTINYKAMGWYRQAPGKERELVAAIDSGVSTNYADSVKGLFTISRDHAKNTVYLQMNSLKPEDTAVYYCNADPDYFDYWGQGTQVTVSS | low polyreactivity |

| Sequence | polyreactivity (PSR sort gate) |
| --- | --- |
| QVQLVESGGGLVQPGGSLRLSCAASGSIFPRNAMGWYRKAPGKERELVAGISYGGSTTYYADSVKGRFTISRDNAKNTVYLQMNSLKPEDTAVYYCAALQQYRRQTTYSSQLYYWGQGTQVTVSS | high polyreactivity |
| QVQLVESGGGLVQAGGSLRVSCAASGSNFGGYAMGWYRQAPGKERELVAAISSRGIDTTYADSVKVRFTISRDNAKNTVYLQMYSLKPDDTAVYYCAEFVSDATVGPSNGLDYWGQGTQVTVSS | low polyreactivity |
| QVQLVESGGGLVQAGGSLRLSCAASGLTFRDNAMGRYRQAPGKERELVATINSGGSTDYADSVKGRFTISRDNAKNTVYLQMNSLKPEDTAVYYCAVSREYYDRGWYSIFYWYVYWGQGTQVTVSS | low polyreactivity |
| QDQLVESGGGLVQEGGSLRLSCAASGRIFVGYAMGWSRQAPGKERELVAAISSSGGRTYYADSVKGRFTISRDNAKNTVYFQMNSLQPEDTAVYYCAAGRFIWGTWALDYWGQGTQVTVSS | high polyreactivity |
| QVQLVESGGGLVQAGGSLRLSCAASGLIFQYYVMGWYRQAPGKERELVAAISARGGGTYYADSVKGRFTISRDNEKITVYLQMNSLKPEDTAVYYCAADFGTIRVYSGDYWGQGTQVTVSS | high polyreactivity |
| QVQLVESGGGLVQAGGSLRLSCAASGNTFGKYAMGWSRQAPGKERELLATITRRGGSTYYADSVKGRFTISRDNAKNTVYLQMNSLNPEDTAVYYCAAVVRYRQGVTRSIMDYWGQGTQVTVSS | high polyreactivity |
| QVQRVESGGGLVQAGGSLRLSCAASGSTFTWNVMGWYRQAPGKERELVASITSGDSTYADSVKGRFTISRDNAKNTVYLQMNSLKPEDTAVYYCNVGYDQEKYGYWGQGTQVTVSS | low polyreactivity |
| QVQLVESGGGLVQAGGSLRLSCAASGRIFWYYAMGWYRQAPGKERELVAAITSGGSTNYADSVKGRFTISRDNEKNTVYLQMNSLKQEDTAVYYCNARWPYSGMNYWGQGTQVTVSS | high polyreactivity |
| QVQLVESGGGLVQAGGSLRLSCAASGSILRSNAMGWYRQAPGKERELVATITNSGGSTYADSVKGCFTISRDNAKNTVYLQMNSLKPEDTAVYYCAKAGAGESIAKYDYWGQGTQVTVSS | low polyreactivity |
| QVQLVESGGGLVLAGGSLRLSCAASGSILGTYAMGWYRQAPGKERELVARISRGGSTNYADSVKGRFTISRDNAKNTVYLQMNSLKPEDTAVYYCAKRLYLPESWRYYYWGQGTQVTVSS | high polyreactivity |
| QVQLVESGGGLVQAGGSLRLSCAASGRTSVVNAMGWYRQAPGKERELVAAITSGGSTHYADSVKGRFTISRDNAKNTVYLQMNSLKPEDTAVYYCNARDRRRTNLLDYWGQGTQVTVSS | low polyreactivity |
| QVQLVESGGGLVQAGGSLSLSCAASGSTFVPYAMGWYRQAPGKERELVAAISSTGGSTYYADSVKGRFTISRDNAKNTVYLQMNSLKAEDTAVYYCNALAKIRYGQINKGYYWGQGTQVTVSS | high polyreactivity |
| QVQLVESGGGLVQAGGSLRLSCAASGLTFYGYTMGWYRQAPGKERELVADISISGGSTRYADSVKGRFTISRDNAKNTVYLQMNSLKPEDTAVYYCARDDIYYSNIYDYWGQGTQVTVSS | low polyreactivity |
| QVHLVESGGGLVQAGGSLRLSCAASGYIFQYYAMGWSRQAPGKERELVAAITGGGSTKYADSVKGRFTISRDNAKNTVYLHMNSLKPEDTAVYYCAASLWYRISKYDYWGLGTQVTVSS | high polyreactivity |
| QVQLVESGGGLVQAGGSLRLSCAASGSIFRQYAMGWYRQAPGKERELVATISRSGGSTYYADSVKGRFTISRDNAKNTVYLQMNSLKPEDTAVYYCAASRYKKSYREWWVGSWGQGTQVTVSS | high polyreactivity |
| QVQLVESGGGLVQAGGSLRLSCAASGSIFFRYAMGWYRQAPGKERELVAAISSSGGSTYYADSVKGRFTISRDNAKNTVYLQMNSLKPEDTAVYYCAARYYRKYYYSPFDYWGQGTQVTVSS | high polyreactivity |
| QVQLVESGGGLVQAGGSLRLSCAASGLIFDYYAMGWYRQAPGKERELVAAITSSSGITYYADSVKGRFTISRDNAKNTVYLQMNSLKPEDTAVYYCAAYTTYKLYEYDYWGQGTQVTVSS | low polyreactivity |
| QVQLVESGGGLVQAGGSLRLSCAASGFISAYNAMGWYRPAPGKERELVAAITSGATTKYADSVKGRFTISRDNAKNTVYFQMHSLKPEDTAVYYCAAAPKRRYYVHSGGAYGYWGQGTQVTVSS | high polyreactivity |
| QVQLVESGGGLVQAGGSLRLSCAASGSTILYYGMGWYRQAPGKERELVATITWRGGRTYYADSVKGRFTISRDNAKNTVYLQMNSLKTEDTAVYYCARVRLTTYGYYSWGQGTQVTVSS | high polyreactivity |
| QVQLEESGGGLVQAGGSLRLSCAASGSIFRSNAMGWYRQAPGKERELVAAISSSGGSTYYADSVKGRFTISRDKAKNTVYLQMNSLKPEDTAVYYCAARPSGRGYYLLGYWGQGTQVTVSS | low polyreactivity |
| QVQLVESGGGLVQAGGTLRLSCAASGRIISYNPMGWYRAAAGKEMELVAPINWGGGSTYYADSVKGRFTISRDNAKNTVYLQMNSLKPEDTAVYYCNADSNWYYQWNYYGLYDYWGQGTQVTVSS | low polyreactivity |
